Read-outs that look alike come from different tables or passages of the source.
What was measured:
Experiment in all cases: cell-based or functional assay
[1] = biological target: rat brain type IIA α sub-unit of the voltage-gated sodium channel (rat) (UniProt P04775)
[2] = biological target: rat brain type IIA α sub-unit of the voltage-gated sodium channel (rat) (UniProt P04775); remark: listed apart in the source
[3] = biological target: rat brain type IIA α sub-unit of the voltage-gated sodium channel (rat) (UniProt P04775); remark: listed apart in the source

Chain of UniProt P04775 (P04775 whole entry): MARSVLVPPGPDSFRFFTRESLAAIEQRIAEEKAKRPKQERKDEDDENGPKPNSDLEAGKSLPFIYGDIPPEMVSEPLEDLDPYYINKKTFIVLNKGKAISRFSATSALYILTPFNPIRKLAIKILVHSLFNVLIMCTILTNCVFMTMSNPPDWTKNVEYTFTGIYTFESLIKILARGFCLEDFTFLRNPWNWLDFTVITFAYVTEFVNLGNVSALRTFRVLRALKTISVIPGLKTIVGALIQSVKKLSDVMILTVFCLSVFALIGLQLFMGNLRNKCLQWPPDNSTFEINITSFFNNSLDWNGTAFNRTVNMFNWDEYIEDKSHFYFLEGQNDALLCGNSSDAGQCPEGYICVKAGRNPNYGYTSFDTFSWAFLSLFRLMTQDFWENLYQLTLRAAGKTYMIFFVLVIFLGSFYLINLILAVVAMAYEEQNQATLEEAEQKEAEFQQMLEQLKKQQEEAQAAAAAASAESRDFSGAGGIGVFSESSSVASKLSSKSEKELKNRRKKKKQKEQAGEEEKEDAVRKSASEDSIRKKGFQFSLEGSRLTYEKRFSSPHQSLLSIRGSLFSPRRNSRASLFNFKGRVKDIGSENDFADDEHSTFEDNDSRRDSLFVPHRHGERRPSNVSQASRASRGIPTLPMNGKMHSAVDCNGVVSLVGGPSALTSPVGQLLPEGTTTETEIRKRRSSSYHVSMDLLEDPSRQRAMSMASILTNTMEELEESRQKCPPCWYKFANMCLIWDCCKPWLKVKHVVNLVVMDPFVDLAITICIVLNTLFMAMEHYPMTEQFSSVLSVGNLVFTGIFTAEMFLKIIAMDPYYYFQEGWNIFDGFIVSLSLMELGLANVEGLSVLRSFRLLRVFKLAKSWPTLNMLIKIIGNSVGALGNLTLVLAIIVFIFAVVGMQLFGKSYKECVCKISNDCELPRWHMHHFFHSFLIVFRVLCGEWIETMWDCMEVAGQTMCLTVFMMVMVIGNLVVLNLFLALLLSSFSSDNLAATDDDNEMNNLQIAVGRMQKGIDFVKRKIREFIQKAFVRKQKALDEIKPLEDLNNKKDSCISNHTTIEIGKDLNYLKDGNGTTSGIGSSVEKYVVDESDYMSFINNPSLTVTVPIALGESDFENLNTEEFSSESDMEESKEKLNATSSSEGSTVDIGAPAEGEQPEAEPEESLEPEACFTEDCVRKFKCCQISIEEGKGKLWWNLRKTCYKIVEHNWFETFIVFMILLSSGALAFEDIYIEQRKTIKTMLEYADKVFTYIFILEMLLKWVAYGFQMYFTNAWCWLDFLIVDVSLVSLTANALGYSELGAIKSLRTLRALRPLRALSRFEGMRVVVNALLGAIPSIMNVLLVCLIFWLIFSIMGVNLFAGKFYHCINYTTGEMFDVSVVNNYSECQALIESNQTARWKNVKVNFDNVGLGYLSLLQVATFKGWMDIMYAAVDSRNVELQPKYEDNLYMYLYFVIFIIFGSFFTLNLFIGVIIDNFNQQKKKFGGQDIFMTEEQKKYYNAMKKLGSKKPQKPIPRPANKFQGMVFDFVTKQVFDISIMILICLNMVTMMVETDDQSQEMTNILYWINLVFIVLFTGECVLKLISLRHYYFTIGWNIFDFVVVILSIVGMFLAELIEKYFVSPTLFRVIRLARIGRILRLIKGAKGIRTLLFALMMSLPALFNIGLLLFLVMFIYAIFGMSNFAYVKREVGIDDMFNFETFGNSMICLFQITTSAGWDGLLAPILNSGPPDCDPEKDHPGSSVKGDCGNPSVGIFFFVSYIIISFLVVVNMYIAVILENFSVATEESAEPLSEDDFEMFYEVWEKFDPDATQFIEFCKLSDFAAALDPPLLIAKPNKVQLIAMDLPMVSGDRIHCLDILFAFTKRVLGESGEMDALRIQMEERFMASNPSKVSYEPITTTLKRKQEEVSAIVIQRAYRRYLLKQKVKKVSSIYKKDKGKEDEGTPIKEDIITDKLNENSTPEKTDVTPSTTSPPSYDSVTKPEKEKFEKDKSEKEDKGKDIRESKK

Molecule: rat voltage-gated sodium channel β1 sub-unit (from UniProt Q00954 19-218)
- Inactivation timecourse, Percentage in fast mode [1]: 95%
- Inactivation timecourse, time constant 1 [1]: 1.4 ms
- Inactivation timecourse, time constant 2 [1]: 24.7 ms
- Recovery from inactivation, Percentage in fast mode [1]: 84%
- Recovery from inactivation, time constant 1 [1]: 2 ms
- Recovery from inactivation, time constant 2 [1]: 148 ms
- Voltage-dependence of inactivation, V½ (mV) [1]: -49.1 mV
- Voltage-dependence of inactivation, k (mV) [1]: 5.9 mV
- inactivation time constant 1 at -10 mV (two-electrode voltage clamp, oocytes) [1]: 1.3 ms
- inactivation time constant 2 at -10 mV (two-electrode voltage clamp, oocytes) [1]: 22.7 ms

B1: rat voltage-gated sodium channel β3 sub-unit (protein)
chain: VCVEVPSETEAVQGNPMKLRCISCMKREEVEATTVVEWFYRPEGGKDFLIYEYRNGHQEVESPFQGRLQWNGSKDLQDVSITVLNVTLNDSGLYTCNVSREFEFEAHRPFVKTTRLIPLRVTEEAGEDFTSVVSEIMMYILLVFLTLWLFIEMIYCYRKVSKAEEAAQENASDYLAIPSENKENSVVPVEE
- Recovery from inactivation, time constant 1 [2]: 1.9 ms
- Recovery from inactivation, time constant 2 [2]: 198 ms
- Inactivation timecourse, Percentage in fast mode [3]: 85%
- Inactivation timecourse, time constant 1 [3]: 1.5 ms
- Inactivation timecourse, time constant 2 [3]: 24.7 ms
- Recovery from inactivation, Percentage in fast mode [3]: 73%
- Recovery from inactivation, time constant 1 [3]: 4.1 ms
- Recovery from inactivation, time constant 2 [3]: 170 ms
- Voltage-dependence of inactivation, V½ (mV) [3]: -49.3 mV
- Voltage-dependence of inactivation, k (mV) [3]: 6.1 mV
- inactivation time constant 1 at -10 mV (two-electrode voltage clamp, oocytes) [3]: 1 ms
- inactivation time constant 2 at -10 mV (two-electrode voltage clamp, oocytes) [3]: 23.8 ms
- steady-state inactivation, V1/2 (midpoint) [3]: -49.4 mV

B2: human voltage-gated sodium channel β3 sub-unit (protein)
chain: FPVCVEVPSETEAVQGNPMKLRCISCMKREEVEATTVVEWFYRPEGGKDFLIYEYRNGHQEVESPFQGRLQWNGSKDLQDVSITVLNVTLNDSGLYTCNVSREFEFEAHRPFVKTTRLIPLRVTEEAGEDFTSVVSEIMMYILLVFLTLWLLIEMIYCYRKVSKAEEAAQENASDYLAIPSENKENSAVPVEE
- inactivation time constant 1 [3]: 1 ms
- inactivation time constant 2 [3]: 9.1 ms

— patent US20040248240A1
